The source of these data is PMC4444329, “Disabling Mitochondrial Peroxide Metabolism via Combinatorial Targeting of Peroxiredoxin 3 as an Effective Therapeutic Approach for Malignant Mesothelioma” (PLoS ONE, 2015).

Data set [1] concerns the molecule itself. Briefly: cross-linking; recombinant PRX3 incubated with indicated concentrations of thiostrepton (TS) for 30 min; reducing SDS-PAGE, immunoblot with anti-PRX3 antibody.
Data set [2] concerns the molecule itself. Briefly: cross-linking; in vitro PRX3 turnover: 100 μM PRX3, 5 μM E. coli TRX2, 0.5 μM E. coli TR, NADPH regenerating system (or TCEP), 0.2 mM TS or DMSO, 16-18 h at 37°C, successive additions of 100 μM H2O2; reducing SDS-PAGE, GelCode Blue stain.
Data set [3] deals with the molecule itself. Briefly: cross-linking; EE Mut cycled with and without TS as in the in vitro assay, treated with DTT, exchanged into 25 mM ammonium bicarbonate; intact mass by ESI-TOF MS.

Usually stoichiometry N stands for the number of molecules, sites or subunits per partner or assembly.

B1: Human recombinant PRX3 (peroxiredoxin 3), wild type, residues 62-256 (enzyme, UniProt P30048 62-256, looked up)
chain: APAVTQHAPYFKGTAVVNGEFKDLSLDDFKGKYLVLFFYPLDFTFVCPTEIVAFSDKANEFHDVNCEVVAVSVDSHFSHLAWINTPRKNGGLGHMNIALLSDLTKQISRDYGVLLEGSGLALRGLFIIDPNGVIKHLSVNDLPVGRSVEETLRLVKAFQYVETHGEVCPANWTPDSPTIKPSPAASKEYFQKVNQ
notes: peroxiredoxin 3 (PRX3), human, PRDX3 gene residues 62-256, codon optimized, in pET15b; also called rPRX3; WT PRX3; source: E. coli C41 (DE3), purified (nickel-NTA, Q-Sepharose FF, Superdex 200); not shown: His-tag, N-terminal, kept
As for B1, the binding result in data set [1] is “binds”.

B2: Human recombinant PRX3 C127S, residues 62-256 (enzyme, UniProt P30048 62-256, looked up)
chain: APAVTQHAPYFKGTAVVNGEFKDLSLDDFKGKYLVLFFYPLDFTFVCPTEIVAFSDKANEFHDVNSEVVAVSVDSHFSHLAWINTPRKNGGLGHMNIALLSDLTKQISRDYGVLLEGSGLALRGLFIIDPNGVIKHLSVNDLPVGRSVEETLRLVKAFQYVETHGEVCPANWTPDSPTIKPSPAASKEYFQKVNQ
notes: peroxiredoxin 3 (PRX3), human, PRDX3 gene residues 62-256, non-catalytic cysteine replaced with serine; also called Cys127 mutant; source: E. coli C41 (DE3), purified (nickel-NTA, Q-Sepharose FF, Superdex 200); not shown: His-tag, N-terminal, kept
For the protein B2, in data set [2], the binding result is recorded as “binds”.

B3: Engineered dimer of PRX3, S139E/A142E (EE Mut), residues 62-256 (enzyme, human, UniProt P30048 62-256, looked up)
chain: APAVTQHAPYFKGTAVVNGEFKDLSLDDFKGKYLVLFFYPLDFTFVCPTEIVAFSDKANEFHDVNCEVVAVSVDSHFEHLEWINTPRKNGGLGHMNIALLSDLTKQISRDYGVLLEGSGLALRGLFIIDPNGVIKHLSVNDLPVGRSVEETLRLVKAFQYVETHGEVCPANWTPDSPTIKPSPAASKEYFQKVNQ
notes: peroxiredoxin 3 (PRX3), human, PRDX3 gene residues 62-256, two charged residues introduced into the dimer-dimer interface; His-tag removed by digestion with biotinylated thrombin; Measured mass of the reduced monomer 21640.6 amu; also called EE mutant; dimeric variant of PRX3; source: E. coli C41 (DE3), purified (nickel-NTA, Q-Sepharose FF, Superdex 200); not shown: His-tag, N-terminal, cleaved
For B3, the “stoichiometry N” value in data set [3] amounted to 2.
